Laboratory results as given in PMC6596994 (Nature, 2019).
Like-named read-outs stand apart in the source and are kept apart here. Ends that are not written are not given here.

T1: Mouse TBK1 (1–657, S172A) (mouse, UniProt Q9WUN2 1-657, S172A)
T1 sequence: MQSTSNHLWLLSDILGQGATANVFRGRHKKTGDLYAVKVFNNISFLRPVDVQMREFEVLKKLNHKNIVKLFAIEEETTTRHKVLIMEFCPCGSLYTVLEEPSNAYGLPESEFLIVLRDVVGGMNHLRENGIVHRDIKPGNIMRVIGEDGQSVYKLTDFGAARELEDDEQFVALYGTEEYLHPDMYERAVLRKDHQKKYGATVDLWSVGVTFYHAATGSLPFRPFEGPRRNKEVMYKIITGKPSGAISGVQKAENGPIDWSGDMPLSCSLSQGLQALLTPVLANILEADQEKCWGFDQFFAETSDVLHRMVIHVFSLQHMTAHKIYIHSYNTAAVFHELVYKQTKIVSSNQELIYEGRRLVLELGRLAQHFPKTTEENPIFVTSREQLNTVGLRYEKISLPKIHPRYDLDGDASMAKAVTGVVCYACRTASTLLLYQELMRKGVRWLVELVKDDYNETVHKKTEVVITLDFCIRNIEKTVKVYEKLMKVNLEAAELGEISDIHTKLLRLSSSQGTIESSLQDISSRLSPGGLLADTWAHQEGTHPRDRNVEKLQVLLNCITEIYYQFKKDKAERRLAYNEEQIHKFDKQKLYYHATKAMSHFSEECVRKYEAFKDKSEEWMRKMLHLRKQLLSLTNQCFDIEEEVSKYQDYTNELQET

T2: Human TBK1 (1–657, S172A) (human, UniProt Q9UHD2 1-657, S172A)
T2 sequence: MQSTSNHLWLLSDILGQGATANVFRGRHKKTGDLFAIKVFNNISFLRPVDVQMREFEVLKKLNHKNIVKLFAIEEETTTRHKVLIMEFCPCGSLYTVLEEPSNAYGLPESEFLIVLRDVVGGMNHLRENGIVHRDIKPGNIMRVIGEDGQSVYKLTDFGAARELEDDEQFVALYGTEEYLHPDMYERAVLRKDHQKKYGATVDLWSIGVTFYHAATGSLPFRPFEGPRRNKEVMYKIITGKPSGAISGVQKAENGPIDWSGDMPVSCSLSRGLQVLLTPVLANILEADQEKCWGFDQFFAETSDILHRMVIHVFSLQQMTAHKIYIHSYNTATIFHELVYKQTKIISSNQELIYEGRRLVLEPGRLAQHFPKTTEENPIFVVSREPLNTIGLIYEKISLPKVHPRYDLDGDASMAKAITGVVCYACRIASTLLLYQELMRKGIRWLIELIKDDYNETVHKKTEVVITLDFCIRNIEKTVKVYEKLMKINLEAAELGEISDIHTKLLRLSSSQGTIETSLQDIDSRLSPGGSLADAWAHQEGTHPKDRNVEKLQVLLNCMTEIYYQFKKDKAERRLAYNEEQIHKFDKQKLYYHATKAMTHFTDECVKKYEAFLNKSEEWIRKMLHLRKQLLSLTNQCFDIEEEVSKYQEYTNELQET


Legend:
Test in all cases: SPR
[1] = target: p-hSTING (155–379) (human) (UniProt Q86WV6)
[2] = target: T1, Mouse TBK1 (1–657, S172A)
[3] = target: T2, Human TBK1 (1–657, S172A)
[4] = target: T1, Mouse TBK1 (1–657, S172A); remark: listed apart in the source
[5] = target: T2, Human TBK1 (1–657, S172A); remark: listed apart in the source

Molecule | Kd [2] [µM] | Kd [3] [µM] | other results
human TBK1 Q581A (from UniProt Q9UHD2 1-657) (domain or fragment) |  |  | fold reduction of the binding affinity against wild type TBK1 [1]: 20 fold
human TBK1 K584A (from UniProt Q9UHD2 1-657) (domain or fragment) |  |  | fold reduction of the binding affinity against wild type TBK1 [1]: 20 fold
hSTING (155–379), unphosphorylated (domain or fragment, biotin on the Avi tag) VAHGLAWSYYIGYLRLILPELQARIRTYNQHYNNLLRGAVSQRLYILLPLDCGVPDNLSMADPNIRFLDKLPQQTGDHAGIKDRVYSNSIYELLENGQRAGTCVLEYATPLQTLFAMSQYSQAGFSREDRLEQAKLFCRTLEDILADAPESQNNCRLIAYQEPADDSSFSLSQEVLRHLRQEEKEEVTVGSLKTSAVPSTSTMSQEPELLISGMEKPLPLRTDFS | ~170 | ~290 | Kd [4]: ~260 µM; Kd [5]: ~230 µM
TWGSLKTSAVPSTSTMSQEPELLISGMEKPLPLRTDFS [p-hSTING (342–379)] | 15.3 | 16.8 | 
hSTING (155–379, T376E) (domain or fragment, biotin on the Avi tag) VAHGLAWSYYIGYLRLILPELQARIRTYNQHYNNLLRGAVSQRLYILLPLDCGVPDNLSMADPNIRFLDKLPQQTGDHAGIKDRVYSNSIYELLENGQRAGTCVLEYATPLQTLFAMSQYSQAGFSREDRLEQAKLFCRTLEDILADAPESQNNCRLIAYQEPADDSSFSLSQEVLRHLRQEEKEEVTVGSLKTSAVPSTSTMSQEPELLISGMEKPLPLREDFS | ~62 |  | 
SGMEKPLPLREDWM (also: biotin on the Avi tag) [hSTING (366–379, T376E F378W 3379M)] | 43.9 |  | 
SGMEKPLPLREDWE (also: biotin on the Avi tag) [hSTING (366–379, T376E F378W S379E)] | ~127 |  | 
SGMEKPLPLREDWF (also: biotin on the Avi tag) [hSTING (366–379, T376E F378W S379F)] | 27.1 |  | 
SGMEKPLPLREDWI (also: biotin on the Avi tag) [hSTING (366–379, T376E F378W S379I)] | ~59 |  | 
STSTMSQEPELLISGMEKPLPLRTDFS [p-hSTING (353–379)] | 25.1 | 22.6 | 
SGMEKPLPLRTDFS [p-hSTING (366–379)] | 30.8 | 35.6 | 
hSTING (155–379, T376E F378M S379W), biotin-Avi-His6-SUMO fusion (domain or fragment, biotin on the Avi tag) VAHGLAWSYYIGYLRLILPELQARIRTYNQHYNNLLRGAVSQRLYILLPLDCGVPDNLSMADPNIRFLDKLPQQTGDHAGIKDRVYSNSIYELLENGQRAGTCVLEYATPLQTLFAMSQYSQAGFSREDRLEQAKLFCRTLEDILADAPESQNNCRLIAYQEPADDSSFSLSQEVLRHLRQEEKEEVTVGSLKTSAVPSTSTMSQEPELLISGMEKPLPLREDMW | 1.2 | 1.4 | 
